T1: SIGLEC-5 (limits assumed)
T1 construct: also called OB-BP-2
T1 receptor: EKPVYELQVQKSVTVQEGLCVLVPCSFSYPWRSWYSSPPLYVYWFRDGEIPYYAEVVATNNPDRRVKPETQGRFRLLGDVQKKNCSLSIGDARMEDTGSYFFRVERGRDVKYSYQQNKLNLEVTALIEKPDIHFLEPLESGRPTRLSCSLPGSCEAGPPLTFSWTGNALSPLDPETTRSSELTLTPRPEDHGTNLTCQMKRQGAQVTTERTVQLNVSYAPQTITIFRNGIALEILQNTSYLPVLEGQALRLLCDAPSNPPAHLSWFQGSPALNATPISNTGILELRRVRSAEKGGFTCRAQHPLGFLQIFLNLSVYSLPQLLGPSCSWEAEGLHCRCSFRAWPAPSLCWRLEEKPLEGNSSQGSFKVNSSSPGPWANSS

T2: mouse CD117 (mouse, UniProt P05532)
T2 construct: antigen of the Carterra SPR kinetics; also called murine CD117
T2 sequence (receptor, looked up): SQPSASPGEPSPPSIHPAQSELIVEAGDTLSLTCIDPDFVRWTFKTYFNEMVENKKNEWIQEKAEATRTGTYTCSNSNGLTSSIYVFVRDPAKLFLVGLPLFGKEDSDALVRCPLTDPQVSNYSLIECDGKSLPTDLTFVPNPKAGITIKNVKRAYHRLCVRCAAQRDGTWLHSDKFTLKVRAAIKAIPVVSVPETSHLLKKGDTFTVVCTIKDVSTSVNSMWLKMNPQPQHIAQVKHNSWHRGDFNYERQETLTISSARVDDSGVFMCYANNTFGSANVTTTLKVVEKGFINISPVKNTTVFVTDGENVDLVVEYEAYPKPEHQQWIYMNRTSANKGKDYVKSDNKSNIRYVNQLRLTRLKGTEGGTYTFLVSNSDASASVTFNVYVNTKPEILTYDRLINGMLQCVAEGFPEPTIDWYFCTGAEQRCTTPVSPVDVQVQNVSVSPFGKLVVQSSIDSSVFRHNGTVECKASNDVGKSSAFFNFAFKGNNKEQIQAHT


Assays:
[1] = target: T3, Sialic acid-binding immunoglobulin-like lectin 8 (SIGLEC-8), antigen of the Carterra SPR studies (UniProt Q9NYZ4 17-363, limits assumed); assay: Carterra SPR kinetics, sensorgram panel
Method in brief: (§1)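 On a Carterra instrument, surface plasmon resonance was used to measure how antibodies bind SIGLEC-8, with rate constants and dissociation constants as read-outs. The antibodies were taken from synthetic libraries by bead-based panning and clonal ELISA screening, then expressed and purified.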

[2] = target: T4, SIGLEC-8 transiently expressed on cells (UniProt Q9NYZ4 17-499, limits assumed); assay: cell binding titration, transient SIGLEC-8 line
T4 construct: whole, on cells; Two cassettes are described (P2A mVenus and direct mVenus fusion); also called the transient line; pTT5-SIGLEC-8 P2A mVenus

[3] = target: T3, Sialic acid-binding immunoglobulin-like …; assay: Carterra SPR
Method in brief: as §1

[4] = target: T3, Sialic acid-binding immunoglobulin-like …; assay: Carterra SPR kinetics, summary table
Method in brief: as §1

[5] = target: T5, CD117 transiently expressed on Expi293 cells (UniProt P10721 26-976, limits assumed); assay: FACS cell binding, Expi293 transiently expressing CD117
T5 construct: whole, on cells; Two cassettes are described (P2A mVenus and direct mVenus fusion); also called CD117 transient cells; the transient cell line

[6] = target: CD117-GFP transiently overexpressed in HEK293T cells (UniProt P10721 26-976); assay: cell-based or functional assay
SIGLEC-2 = target: T6, SIGLEC-2; assay: SPR cross-reactivity table
T6 construct: also called CD22
Method in brief: (§2)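 Purified antibodies against SIGLEC-8, first selected from synthetic libraries by four rounds of bead-based panning, were tested for cross-reactivity with related SIGLEC proteins by surface plasmon resonance on a Carterra instrument. Each protein tested has a dissociation constant or a binding result listed.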

SIGLEC-7 = target: T7, SIGLEC-7; assay: SPR cross-reactivity table
T7 construct: also called p75/AIRM1
Method in brief: as §2

SIGLEC-6 = target: T8, SIGLEC-6; assay: SPR cross-reactivity table
T8 construct: also called OB-BP-1
Method in brief: as §2

SIGLEC-5 = target: T1, SIGLEC-5; assay: SPR cross-reactivity table
Method in brief: as §2

SIGLEC-3 = target: T9, SIGLEC-3; assay: SPR cross-reactivity table
T9 construct: also called CD33
Method in brief: as §2

[7] = target: T4, SIGLEC-8 transiently expressed on cells; assay: flow cytometry titration on cells transiently expressing SIGLEC-8 and on parental Expi293
[8] = target: T5, CD117 transiently expressed on Expi293 …; assay: FACS, MFI expressing / parental cells
cyno CD117 = target: T10, cyno CD117 (Macaca fascicularis, UniProt A0A7N9CP24); assay: Carterra SPR, cyno CD117
T10 construct: antigen of the Carterra SPR kinetics; also called cynomolgus monkey CD117
Experimental: (§3) To further evaluate the antibodies discovered during the screens, 21 clones were selected for detailed characterization and were analyzed for target binding kinetics by a Carterra SPR instrument. The binding kinetics of the anti-CD117 antibodies for human CD117, cynomolgus monkey CD117, and murine CD117 are shown in FIG. 29A-29B.

[9] = target: T11, Cluster of differentiation 117 (CD117), antigen of epitope binning and ELISA (UniProt P10721 26-520, limits assumed); assay: Carterra SPR, human CD117
T11 construct: also called tyrosine-protein kinase KIT; mast/stem cell growth factor receptor (SCFR)
Experimental: as §3

mouse CD117 = target: T2, mouse CD117; assay: Carterra SPR, mouse CD117
Experimental: as §3

T6 sequence (chain, as listed by the source limits assumed): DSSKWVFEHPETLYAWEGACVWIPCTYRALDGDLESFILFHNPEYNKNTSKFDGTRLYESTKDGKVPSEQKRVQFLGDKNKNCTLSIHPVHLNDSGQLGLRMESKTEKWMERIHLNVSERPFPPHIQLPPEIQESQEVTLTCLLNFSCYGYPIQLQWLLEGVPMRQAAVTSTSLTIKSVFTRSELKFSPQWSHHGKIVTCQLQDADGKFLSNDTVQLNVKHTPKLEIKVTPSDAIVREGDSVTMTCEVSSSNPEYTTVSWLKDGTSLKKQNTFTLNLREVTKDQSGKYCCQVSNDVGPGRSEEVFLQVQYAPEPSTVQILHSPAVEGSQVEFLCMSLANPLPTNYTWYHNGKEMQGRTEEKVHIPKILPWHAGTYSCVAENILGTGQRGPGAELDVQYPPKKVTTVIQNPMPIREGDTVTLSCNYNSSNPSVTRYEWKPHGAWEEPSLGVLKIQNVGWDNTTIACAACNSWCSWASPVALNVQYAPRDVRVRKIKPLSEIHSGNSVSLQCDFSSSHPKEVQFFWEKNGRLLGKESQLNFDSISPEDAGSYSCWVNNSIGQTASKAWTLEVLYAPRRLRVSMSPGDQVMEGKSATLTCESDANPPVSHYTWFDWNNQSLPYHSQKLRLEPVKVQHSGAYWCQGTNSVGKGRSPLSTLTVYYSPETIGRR
T9 sequence (receptor, as listed by the source limits assumed): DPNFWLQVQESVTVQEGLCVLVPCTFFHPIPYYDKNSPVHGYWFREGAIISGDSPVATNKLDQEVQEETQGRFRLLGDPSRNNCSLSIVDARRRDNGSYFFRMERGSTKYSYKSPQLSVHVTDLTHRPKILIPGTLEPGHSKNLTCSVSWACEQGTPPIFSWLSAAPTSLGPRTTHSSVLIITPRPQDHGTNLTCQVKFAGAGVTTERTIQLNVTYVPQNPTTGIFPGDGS
T10 sequence (A0A7N9CP24 entry or part of it): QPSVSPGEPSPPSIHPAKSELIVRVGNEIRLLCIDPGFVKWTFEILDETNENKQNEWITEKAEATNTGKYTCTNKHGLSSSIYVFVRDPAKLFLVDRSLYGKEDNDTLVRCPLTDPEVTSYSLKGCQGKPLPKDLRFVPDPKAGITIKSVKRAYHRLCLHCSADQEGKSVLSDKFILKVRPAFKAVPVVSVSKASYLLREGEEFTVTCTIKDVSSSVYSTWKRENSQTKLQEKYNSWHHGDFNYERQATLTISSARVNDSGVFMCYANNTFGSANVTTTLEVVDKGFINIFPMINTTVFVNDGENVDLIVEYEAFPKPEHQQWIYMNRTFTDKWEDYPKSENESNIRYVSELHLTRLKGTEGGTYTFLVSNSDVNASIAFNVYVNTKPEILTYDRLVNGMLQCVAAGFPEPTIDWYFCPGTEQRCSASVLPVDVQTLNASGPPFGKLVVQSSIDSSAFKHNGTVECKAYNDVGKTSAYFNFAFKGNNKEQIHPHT
T8 sequence (receptor, as listed by the source limits assumed): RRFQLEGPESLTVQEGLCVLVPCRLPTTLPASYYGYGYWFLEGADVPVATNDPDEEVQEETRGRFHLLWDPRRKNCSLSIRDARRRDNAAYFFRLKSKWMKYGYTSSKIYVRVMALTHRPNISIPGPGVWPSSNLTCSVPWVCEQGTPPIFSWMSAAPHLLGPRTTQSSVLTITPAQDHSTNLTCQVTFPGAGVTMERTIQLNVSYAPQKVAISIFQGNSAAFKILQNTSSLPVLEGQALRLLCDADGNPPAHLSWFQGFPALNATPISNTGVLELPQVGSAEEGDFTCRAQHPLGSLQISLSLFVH
T5 sequence (P10721 26-976 limits assumed): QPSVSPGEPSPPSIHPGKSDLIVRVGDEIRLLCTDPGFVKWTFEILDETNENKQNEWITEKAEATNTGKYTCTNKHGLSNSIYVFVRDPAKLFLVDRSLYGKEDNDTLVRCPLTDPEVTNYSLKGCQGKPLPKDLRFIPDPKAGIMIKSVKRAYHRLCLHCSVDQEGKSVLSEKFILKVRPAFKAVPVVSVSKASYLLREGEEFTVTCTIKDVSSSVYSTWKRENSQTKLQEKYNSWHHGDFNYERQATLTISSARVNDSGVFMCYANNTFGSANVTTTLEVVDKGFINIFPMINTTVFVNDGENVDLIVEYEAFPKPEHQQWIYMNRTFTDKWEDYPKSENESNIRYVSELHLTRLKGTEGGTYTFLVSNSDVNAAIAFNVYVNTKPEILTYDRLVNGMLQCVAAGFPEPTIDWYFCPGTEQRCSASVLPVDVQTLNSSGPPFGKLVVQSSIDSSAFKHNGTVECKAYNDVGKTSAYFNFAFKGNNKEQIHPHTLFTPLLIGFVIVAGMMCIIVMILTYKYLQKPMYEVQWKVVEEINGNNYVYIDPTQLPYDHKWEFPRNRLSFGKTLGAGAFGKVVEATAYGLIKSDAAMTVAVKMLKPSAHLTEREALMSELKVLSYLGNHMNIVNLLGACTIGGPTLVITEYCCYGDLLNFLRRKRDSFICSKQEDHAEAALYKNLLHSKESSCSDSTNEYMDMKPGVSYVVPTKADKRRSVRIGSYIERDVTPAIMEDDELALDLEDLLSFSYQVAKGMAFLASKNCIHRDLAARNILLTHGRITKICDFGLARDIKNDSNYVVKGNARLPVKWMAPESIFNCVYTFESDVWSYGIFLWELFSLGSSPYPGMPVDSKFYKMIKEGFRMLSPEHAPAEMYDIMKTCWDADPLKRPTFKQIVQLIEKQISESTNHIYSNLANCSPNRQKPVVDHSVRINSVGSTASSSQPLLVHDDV
T4 sequence (Q9NYZ4 17-499 limits assumed): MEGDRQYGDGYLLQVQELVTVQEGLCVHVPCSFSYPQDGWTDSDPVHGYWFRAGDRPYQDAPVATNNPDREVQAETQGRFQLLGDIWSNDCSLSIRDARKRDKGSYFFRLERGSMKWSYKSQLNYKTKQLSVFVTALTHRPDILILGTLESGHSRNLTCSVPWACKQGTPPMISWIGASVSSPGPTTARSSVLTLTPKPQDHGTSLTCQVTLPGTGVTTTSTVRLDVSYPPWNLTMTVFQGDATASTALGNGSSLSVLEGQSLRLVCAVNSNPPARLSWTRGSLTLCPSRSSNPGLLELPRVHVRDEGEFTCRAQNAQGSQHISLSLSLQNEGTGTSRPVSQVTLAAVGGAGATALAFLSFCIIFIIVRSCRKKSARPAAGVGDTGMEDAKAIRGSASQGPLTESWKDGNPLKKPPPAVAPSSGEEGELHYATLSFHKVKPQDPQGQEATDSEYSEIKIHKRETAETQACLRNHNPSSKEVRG
T7 sequence (receptor, as listed by the source limits assumed): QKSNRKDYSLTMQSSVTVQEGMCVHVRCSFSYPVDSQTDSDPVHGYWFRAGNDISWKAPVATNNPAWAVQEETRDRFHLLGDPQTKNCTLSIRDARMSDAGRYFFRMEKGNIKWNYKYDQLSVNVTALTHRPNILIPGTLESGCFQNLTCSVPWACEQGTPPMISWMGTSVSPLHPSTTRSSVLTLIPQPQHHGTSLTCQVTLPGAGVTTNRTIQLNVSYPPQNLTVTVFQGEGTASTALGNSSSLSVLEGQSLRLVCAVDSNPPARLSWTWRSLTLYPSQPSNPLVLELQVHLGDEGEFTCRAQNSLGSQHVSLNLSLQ
T3 sequence (Q9NYZ4 17-363 limits assumed): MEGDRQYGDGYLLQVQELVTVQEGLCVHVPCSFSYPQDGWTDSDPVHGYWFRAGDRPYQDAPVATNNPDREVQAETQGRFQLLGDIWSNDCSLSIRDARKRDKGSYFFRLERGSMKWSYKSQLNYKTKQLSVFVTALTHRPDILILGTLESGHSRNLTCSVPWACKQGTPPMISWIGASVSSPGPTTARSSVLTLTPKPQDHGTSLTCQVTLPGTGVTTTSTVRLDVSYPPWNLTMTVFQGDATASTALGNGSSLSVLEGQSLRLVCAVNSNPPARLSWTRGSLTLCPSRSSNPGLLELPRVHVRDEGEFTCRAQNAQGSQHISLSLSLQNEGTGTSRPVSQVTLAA
T11 sequence (P10721 26-520 limits assumed): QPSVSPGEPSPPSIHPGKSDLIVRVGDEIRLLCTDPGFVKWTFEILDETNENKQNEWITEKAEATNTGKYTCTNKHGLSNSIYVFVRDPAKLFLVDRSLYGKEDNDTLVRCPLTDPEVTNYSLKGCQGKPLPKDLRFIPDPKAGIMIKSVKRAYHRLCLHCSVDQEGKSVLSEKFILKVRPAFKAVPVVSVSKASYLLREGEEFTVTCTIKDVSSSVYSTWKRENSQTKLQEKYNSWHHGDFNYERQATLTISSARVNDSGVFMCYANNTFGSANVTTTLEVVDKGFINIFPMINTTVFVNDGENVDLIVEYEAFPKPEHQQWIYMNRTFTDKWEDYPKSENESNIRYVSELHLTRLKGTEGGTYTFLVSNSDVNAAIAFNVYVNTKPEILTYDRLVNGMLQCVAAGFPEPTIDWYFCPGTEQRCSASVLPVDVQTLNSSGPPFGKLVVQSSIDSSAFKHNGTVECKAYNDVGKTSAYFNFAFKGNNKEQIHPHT

Row | EC50 [2] [nM] | Kd [3] [nM] | koff [4] [s⁻¹] | kon [4] [M⁻¹ s⁻¹] | EC50 [5] [nM] | Kd (SIGLEC-5) [nM] | binding result (SIGLEC-2) | binding result (SIGLEC-7) | binding result (SIGLEC-3) | MFI Ratio [8] | Kd (cyno CD117) [nM] | koff (cyno CD117) [s⁻¹] | kon (cyno CD117) [M⁻¹ s⁻¹] | Kd [9] [nM] | koff [9] [s⁻¹] | kon [9] [M⁻¹ s⁻¹] | binding result (mouse CD117) | Binder | other results
1 | 0.609 | 0.0225 | 1e-05 | 444000 | – | – | – | – | – | – | – | – | – | – | – | – | – | SIGLEC-8-40 (antibody, human IgG1, kappa, V domains shown, tested as expressed and purified mAb; also called SIBLEC8-40) VH: EVQLLESGGGLVQPGGSLRLSCAASGFTFSFFDMMWVRQAPGKGLEWVSQISETGRRTYYADSVKGRFTISRDNSKNTLYLQMNSLRAEDTAVYYCATAEDEQGYDYWGQGTLVTVSS VL: DIQMTQSPSSLSASVGDRVTITCRASQSINFWLRWYQQKPGKAPKLLIYGTTSLESGVPSRFSGSGSGTDFTLTISSLQPEDFATYYCQQTATWPFTFGQGTKVEIKR | Kd [1]: < 0.023 nM
2 | – | – | – | – | 0.116 | – | – | – | – | – | – | – | – | – | – | – | – | CD117-6 (antibody, human IgG1, kappa, V domains shown, detected with anti-human IgG in FACS) VH: EVQLLESGGGLVQPGGSLRLSCAASGFTFSAYALTWVRQAPGKGLEWVSAISSSGGSTFYADSVKGRFTISRDNSKNTLYLQMNSLRAEDTAVYYCARVSRGYPRRSDSWGQGTLVTVSS VL: DIQMTQSPSSLSASVGDRVTTTCRASQGISTYLNWYQQKPGKAPKLLIYGASRLQGGVPSRFSGSGSGTDFTLTISSLQPEDFATYYCQQGYSFPWTFGGGTKVEIKR | IC50, inhibition of the SCF-stimulated SRF reporter signal (FFLuc/RLuc); same row prints log(IC50) -8.147 and Span -0.2026 [6]: 7.13e-09 M
3 | 1.26 | 0.292 | 4.38e-05 | 150000 | – | 5.8 | – | – | – | – | – | – | – | – | – | – | – | SIGLEC-8-1 (antibody, human IgG1, kappa, V domains shown, tested as expressed and purified mAb) VH: EVQLLESGGGLVQPGGSLRLSCAASGFTFSNFPMSWVRQAPGKGLEWVSSISGTGSSTYYADSVKGRFTISRDNSKNTLYLQMNSLRAEDTAVYYCVREGRYFYYAMDVWGQGTLVTVSS VL: DIQMTQSPSSLSASVGDRVTITCRASQNIAGYLNWYQQKPGKAPKLLIYAASNLHTGVPSRFSGSGSGTDFTLTISSLQPEDFATYYCQQSYSTPLAFGGGTKVEIKR | Kd (SIGLEC-2): 196 nM; Kd (SIGLEC-7): 5240 nM; Kd (SIGLEC-6): 7 nM; Kd (SIGLEC-3): 135 nM; EC50 (read off the curve) [7]: ~5 nM
4 | 2.19 | 0.217 | 7.23e-05 | 334000 | – | 29.7 | no binding | no binding | no binding | – | – | – | – | – | – | – | – | SIGLEC-8-11 (antibody, human IgG1, kappa, V domains shown, tested as expressed and purified mAb) VH: EVQLLESGGGLVQPGGSLRLSCAASGLTFSNYDMSWVRQAPGKGLEWVSAISTSGGGSGGSTYYADSVKGRFTISRDNSKNTLYLQMNSLRAEDTAVYYCAREANNYYYGMDVWGQGTLVTVSS VL: DIQMTQSPSSLSASVGDRVTITCRASQTISSYLHWYQQKPGKAPKLLIYAASSLHTGVPSRFSGSGSGTDFTLTISSLQPEDFATYYCQQSSSTPLTFGGGTKVEIKR | binding result (SIGLEC-6): no binding
5 | 0.914 | 0.97 | 0.000127 | 131000 | – | 169 | no binding | no binding | no binding | – | – | – | – | – | – | – | – | SIGLEC-8-58 (antibody, human IgG1, kappa, V domains shown, tested as expressed and purified mAb) VH: EVQLLESGGGLVQPGGSLRLSCAASGFTFRTSAMSWVRQAPGKGLEWVSSVSGSGSSTYYADSVKGRFTISRDNSKNTLYLQMNSLRAEDTAVYYCAKEGSYYYYGMDVWGQGTLVTVSS VL: DIQMTQSPSSLSASVGDRVTITCRASQTIGRYLNWYQQKPGKAPKLLIYGASSLYSGVPSRFSGSGSGTDFTLTISSLQPEDFATYYCQQSYKTPVTFGGGTKVEIKR | binding result (SIGLEC-6): no binding
6 | – | – | – | – | 23.8 | – | – | – | – | 26.6 | 508 | 0.16 | 315000 | 189 | 0.1 | 530000 | no binding | CD117-1 (antibody, human IgG1, kappa, V domains shown, detected with anti-human IgG in FACS) VH: EVQLLESGGGLVQPGGSLRLSCAASGFTLTSYAMSWVRQAPGKGLEWVSTISGSGGYTYYADSVKGRFTISRDNSKNTLYLQMNSLRAEDTAVYYCARDSGYDRGLDYWGQGTLVTVSS VL: DIQMTQSPSSLSASVGDRVTITCRASQSVRTYLNWYQQKPGKAPKLLIYDASTLQSGVPSRFSGSGSGTDFTLTISSLQPEDFATYYCQQSYSSSITFGGGTKVEIKR | IC50, inhibition of the SCF-stimulated SRF reporter signal (FFLuc/RLuc); same row prints log(IC50) -9.366 and Span -0.2174 [6]: 4.31e-10 M
7 | 1.07 | 0.517 | 0.000138 | 267000 | – | 6.7 | no binding | no binding | no binding | – | – | – | – | – | – | – | – | SIGLEC-8-44 (antibody, human IgG1, kappa, V domains shown, tested as expressed and purified mAb) VH: EVQLLESGGGLVQPGGSLRLSCAASGFTISSSAMTWVRQAPGKGLEWVSSISGGGGTTYYADSVKGRFTISRDNSKNTLYLQMNSLRAEDTAVYYCAREGAGYYYGMDVWGQGTLVTVSS VL: DIQMTQSPSSLSASVGDRVTITCRASQSIGNYLNWYQQKPGKAPKLLIYAASRLQGGVPSRFSGSGSGTDFTLTISSLQPEDFATYYCQQSYSTPLSFGGGTKVEIKR | Kd (SIGLEC-6): 35.2 nM
8 | – | – | – | – | 4.01 | – | – | – | – | 21.9 | 14.2 | 0.0159 | 1.12e+06 | 22 | 0.0194 | 882000 | no binding | CD117-7 (antibody, human IgG1, kappa, V domains shown, detected with anti-human IgG in FACS) VH: EVQLLESGGGLVQPGGSLRLSCAASGFTFSDYAMGWVRQAPGKGLEWVSGIGGSGGSAYYADSVKGRFTISRDNSKNTLYLQMNSLRAEDTAVYYCARGFDSTDGVDYWGQGTLVTVSS VL: DIQMTQSPSSLSASVGDRVTITCRASQSIGNYLNWYQQKPGKAPKLLIYAASDLQTGVPSRFSGSGSGTDFTLTISSLQPEDFATYYCQQGYSTPYTFGGGTKVEIKR | IC50, inhibition of the SCF-stimulated SRF reporter signal (FFLuc/RLuc); same row prints log(IC50) -9.451 and Span -0.1049 [6]: 3.54e-10 M
9 | – | – | – | – | 0.0718 | – | – | – | – | 12.2 | 2.34 | 0.00146 | 624000 | 2.53 | 0.00177 | 698000 | no binding | CD117-14 (antibody, human IgG1, kappa, V domains shown, detected with anti-human IgG in FACS) VH: EVQLLESGGGLVQPGGSLRLSCAASGFTFSDYAMGWVRQAPGKGLEWVSGIGGSGGSAYYADSVKGRFTISRDNSKNTLYLQMNSLRAEDTAVYYCARGFDSTDGVDYWGQGTLVTVSS VL: DIQMTQSPSSLSASVGDRVTITCQTSQSVSSYLNWYQQKPGKAPKLLIYGASRLESGVPSRFSGSGSGTDFTLTISSLQPEDFATYYCQQSYKTPWTFGGGTKVEIKR | IC50, inhibition of the SCF-stimulated SRF reporter signal (FFLuc/RLuc); same row prints log(IC50) -9.67 and Span -0.1208 [6]: 2.14e-10 M
